# Laboratory results published in US20080050763A1 (INSTITUT PASTEUR, published 2008).
# T1: IKKβ, endogenous, in Rat-1 and 5R cell extracts (rat (from the cell line Rat-1; not …, UniProt Q9QY78 1-757)
# T1 construct: Endogenous protein of a cell extract; also called IKK-beta
# T1 sequence (looked up): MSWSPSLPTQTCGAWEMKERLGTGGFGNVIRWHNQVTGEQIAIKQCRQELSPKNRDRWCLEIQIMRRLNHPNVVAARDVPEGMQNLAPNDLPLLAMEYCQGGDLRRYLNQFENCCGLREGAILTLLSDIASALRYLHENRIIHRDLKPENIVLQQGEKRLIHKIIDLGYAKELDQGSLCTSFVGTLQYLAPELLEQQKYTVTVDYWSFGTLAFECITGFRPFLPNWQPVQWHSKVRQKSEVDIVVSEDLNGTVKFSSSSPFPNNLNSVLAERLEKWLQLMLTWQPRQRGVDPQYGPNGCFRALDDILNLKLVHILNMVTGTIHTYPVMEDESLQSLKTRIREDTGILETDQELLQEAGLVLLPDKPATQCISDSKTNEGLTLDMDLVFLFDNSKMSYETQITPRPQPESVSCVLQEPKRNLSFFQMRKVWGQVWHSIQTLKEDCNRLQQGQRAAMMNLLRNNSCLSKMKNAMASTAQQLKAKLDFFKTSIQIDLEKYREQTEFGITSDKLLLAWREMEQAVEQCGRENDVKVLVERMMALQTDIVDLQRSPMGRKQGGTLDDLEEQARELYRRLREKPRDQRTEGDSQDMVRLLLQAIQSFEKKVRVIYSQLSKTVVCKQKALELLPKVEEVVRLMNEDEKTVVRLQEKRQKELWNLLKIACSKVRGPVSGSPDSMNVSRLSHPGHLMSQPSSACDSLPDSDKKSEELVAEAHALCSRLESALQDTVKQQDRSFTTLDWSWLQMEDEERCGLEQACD
# Target: T1, IKKβ, endogenous, in Rat-1 and 5R cell …
# Experiment: glycerol gradient ultracentrifugation of cell extracts, co-migration
# Experimental: Fractions (160 μl) were collected using the Piston Gradient Fractionator (Biocomp, Serlabo) and their absorbance at 280 nm was measured. To calibrate the gradient, standard proteins were applied to glycerol gradient and in parallel. The reproducibility of each glycerol gradient was also checked by measuring in each fraction the enzymatic activity of an endogenous marker, NDP kinase (110 kDa).
binder,measurement,value
"NEMO (NF-κB essential modulator), endogenous, in Rat-1 cell extracts (other, UniProt Q6TMG5 1-412, looked up, Endogenous protein of a cell extract; also called IKK gamma) MSRHLWKNQLSEMVQPSGGPAEDQDMLGEESSLGKPAMLHLPSEQGTPETLQRCLEENQELRDAIRQSNQMLRERCEELLHFQVSQREEKEFLMCKFQEARKLVERLSLEKLDLRRQREQALEDLEHLKKCQQQMAEDKASVKAQVTSLLGELQESQSRLEAATKERQTLEGRIRAVSEQVRQLESEREVLQQQHSVQVDQLRMQNQSVEAALRMERQAASEEKRKLAQLQAAYHQLFQDYDSHIKSSKGMQLEDLRQQLQQAEEALVAKQELIDKLKEEAEQHKIVMETVPVLKAQADIYKADFQAERHAREKLVERKELLQEQLEQLQREFNKLKVGCHESARIEDMRKRHVETSQPPLLPAPAHHSFHLALSNQRRSPPEEPPDFCCPKCQYQAPDMDTLQIHVMECIE",binding result,binds
